Test results reported in patent US20240301071A1 (Alector, published 2024).

Assays:
[1] = biological target: T1, human SIRPA v1 on BWZ cells (BWZ-huSIRPA) (human, UniProt P78324 31-504); experiment: flow cytometry competition on BWZ-huSIRPA v1 cells, competitor: fluorophore-labelled reference m3F9
T1 construct: also called BWZ cells overexpressing human SIRPA; BWZ-huSIRPA v1 cells
Source text: IC50 values provide another comparison of relative affinity.

cynoSIRPA XPO15313153.1 = biological target: T2, cynoSIRPA XPO15313153.1 (cynomolgus, UniProt A0A2K5VYQ9); experiment: ELISA, plate coated with tagged SIRPA at 1 ug/mL
T2 construct: not tied one by one in the text; also called cynomolgus SIRPA; not shown: Fc or His tag
T2 sequence: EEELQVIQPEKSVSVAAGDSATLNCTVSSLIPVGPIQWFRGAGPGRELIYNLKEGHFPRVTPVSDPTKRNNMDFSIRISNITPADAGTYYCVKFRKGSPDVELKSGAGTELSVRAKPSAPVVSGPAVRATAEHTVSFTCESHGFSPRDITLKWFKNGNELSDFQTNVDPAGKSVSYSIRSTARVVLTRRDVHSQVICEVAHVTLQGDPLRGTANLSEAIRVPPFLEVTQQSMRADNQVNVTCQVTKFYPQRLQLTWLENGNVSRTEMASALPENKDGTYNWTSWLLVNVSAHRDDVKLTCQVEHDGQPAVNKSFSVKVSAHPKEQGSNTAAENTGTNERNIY
Experimental: (§1) In an ELISA assay, 96-well Immulon HBX plates were coated with His- or Fc-tagged SIRPA of a given species, as indicated, at 1 μg/mL in PBS overnight at 4C. Plates were blocked in 5% (w/v) bovine serum albumin in PBS for 1 hour, after which they were washed 3 times with PBS/0.05% Tween 20 (PBS/T). Anti-SIRPA antibodies were added to the plate in a dilution series and were incubated at room temperature for 2 hours, after which the unbound antibody was removed by washing with PBS/T. Horseradish peroxidase-conjugated anti-mouse IgG or anti-human kappa light chain (Jackson Immunoresearch) was then added to the wells and incubated for 30 minutes. Unbound antibody was removed by washing with PBS/T, after which bound antibody was detected using tetramethylbenzidine (TMB). The reaction was stopped with 2N H₂SO₄, after which the plates were read at A450.

rat SIRPA = biological target: T3, rat SIRPA (rat, UniProt P97710 32-373, limits assumed); experiment: ELISA, plate coated with tagged SIRPA at 1 ug/mL
T3 sequence (looked up): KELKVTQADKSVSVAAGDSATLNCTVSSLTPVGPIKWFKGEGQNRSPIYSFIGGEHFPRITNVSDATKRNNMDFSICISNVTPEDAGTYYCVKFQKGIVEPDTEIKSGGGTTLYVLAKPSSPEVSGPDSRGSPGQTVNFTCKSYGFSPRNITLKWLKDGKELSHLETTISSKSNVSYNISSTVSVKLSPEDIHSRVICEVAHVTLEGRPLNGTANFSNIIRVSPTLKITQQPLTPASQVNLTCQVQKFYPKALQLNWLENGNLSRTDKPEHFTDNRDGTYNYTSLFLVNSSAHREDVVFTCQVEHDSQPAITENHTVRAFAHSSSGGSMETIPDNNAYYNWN
Experimental: as §1

huSIRPA v.2 NP542970.1 = biological target: T4, huSIRPA v.2 NP542970.1 (human, UniProt P78324 31-373, limits assumed); experiment: ELISA, plate coated with tagged SIRPA at 1 ug/mL
T4 construct: see m48; also called human SIRPA v2; human SIRPA-Fc (v2)
T4 sequence (P78324 31-373 limits assumed): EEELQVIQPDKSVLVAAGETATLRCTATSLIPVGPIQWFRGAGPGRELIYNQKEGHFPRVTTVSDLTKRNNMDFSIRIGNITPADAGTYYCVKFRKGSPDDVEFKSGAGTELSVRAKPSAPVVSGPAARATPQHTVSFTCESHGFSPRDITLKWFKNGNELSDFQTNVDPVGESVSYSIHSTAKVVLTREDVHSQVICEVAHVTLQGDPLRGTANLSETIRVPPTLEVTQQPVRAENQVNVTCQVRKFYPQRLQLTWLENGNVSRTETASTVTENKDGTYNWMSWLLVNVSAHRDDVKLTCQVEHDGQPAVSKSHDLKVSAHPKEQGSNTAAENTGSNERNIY
Experimental: as §1

[2] = biological target: T5, CynoSIRPA (NP_001271679.1) (cynomolgus, UniProt A0A2K5VYQ9 31-507); experiment: ELISA, plate coated with SIRP protein
T5 sequence: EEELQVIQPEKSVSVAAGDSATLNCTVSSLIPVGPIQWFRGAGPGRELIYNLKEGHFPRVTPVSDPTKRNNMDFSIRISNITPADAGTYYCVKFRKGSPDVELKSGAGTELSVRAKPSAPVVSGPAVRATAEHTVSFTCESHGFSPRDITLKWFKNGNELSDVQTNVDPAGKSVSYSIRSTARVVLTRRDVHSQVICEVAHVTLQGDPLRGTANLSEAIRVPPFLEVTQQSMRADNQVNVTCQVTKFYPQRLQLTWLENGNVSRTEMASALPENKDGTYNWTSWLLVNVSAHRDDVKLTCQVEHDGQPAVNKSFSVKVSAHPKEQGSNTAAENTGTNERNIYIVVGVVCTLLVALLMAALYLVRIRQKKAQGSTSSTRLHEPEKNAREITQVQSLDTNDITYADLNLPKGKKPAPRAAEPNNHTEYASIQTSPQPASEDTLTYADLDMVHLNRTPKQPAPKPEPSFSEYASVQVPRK
Experimental: as §1

[3] = biological target: T1, human SIRPA v1 on BWZ cells …; experiment: flow cytometry titration on BWZ-huSIRPA cells, 4 C
Experimental: After addition of fluorescently labeled secondary antibody and brief washing steps, MFI values as a function of titrated antibody concentration was recorded via FACS analysis. […] Receptor bound antibodies were detected by staining cells with anti-human IgG PE secondary antibody. Curves were fit using nonlinear regression analysis with Graphpad Prism 6 software.

[4] = biological target: T1, human SIRPA v1 on BWZ cells …; experiment: flow cytometry titration on BWZ cells overexpressing huSIRPA, 4 C
Experimental: Receptor bound antibodies were detected by staining cells with anti-mouse IgG Fc APC or anti-human IgG PE secondary antibody. Serial dilutions of the monoclonal antibodies were added to 10⁵ BWZ cells overexpressing huSIRPA (BWZ-huSIRPA) and allowed to achieve binding equilibrium at 4° C. After addition of fluorescently labeled secondary antibody and brief washing steps, mean fluorescent intensity (MFI) values as a function of titrated antibody concentration was recorded via FACS analysis. Curves were fit using nonlinear regression analysis with Graphpad Prism 6 software.

[5] = biological target: T6, histidine-tagged human SIRPA (Sino Biological) (human, UniProt P78324 31-370); experiment: BLI (Octet RED96), antibody captured on anti-mouse IgG Fc sensor, His-tagged SIRPA in solution, 1:1 model
T6 construct: bought, soluble; also called histidine-tagged huSIRPA isoform 1; soluble SIRPA antigen; not shown: histidine tag
T6 sequence (P78324 31-370 limits assumed): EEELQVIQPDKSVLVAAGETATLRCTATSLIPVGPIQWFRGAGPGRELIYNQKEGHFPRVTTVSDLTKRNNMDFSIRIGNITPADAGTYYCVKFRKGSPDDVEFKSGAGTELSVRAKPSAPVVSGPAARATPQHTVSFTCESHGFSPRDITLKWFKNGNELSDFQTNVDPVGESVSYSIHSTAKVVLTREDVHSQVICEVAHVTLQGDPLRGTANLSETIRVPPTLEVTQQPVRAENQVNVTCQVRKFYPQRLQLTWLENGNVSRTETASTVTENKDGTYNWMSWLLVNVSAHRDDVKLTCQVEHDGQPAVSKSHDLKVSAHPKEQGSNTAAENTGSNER
Experimental: (§2) Affinity measurements for the anti-SIRPA antibodies were performed as follows. Bio-layer interferometry (BLI) data were collected on a Pall ForteBio Octet RED96 instrument. Data analysis was performed using ForteBio Data Analysis Software, version 9.0. Standard kinetic buffer (PBS, 0.100 BSA, 0.02% Tween-20, pH 7.2) was used for the assay and for preparing reagents. […] Varying concentrations (0-200 nM) of histidine-tagged human SIRPA (Sino Biological, Beijing, China) were then bound to the captured anti-SIRPA surface (300 s association time, 600 s dissociation time). The resulting BLI signal was obtained as the difference in response from the reference (2.5 μg/mL IgG+0 nM SIRPA) sensor. […] Multi-concentration kinetic analysis was performed using a 1:1 interaction model to extract association and dissociation rate constants (ka and kd, respectively) for each antibody. Binding affinity constants (KD) were calculated from the ratio kd/ka.
(§3) Best-fit traces from the resulting sensorgrams were analyzed to calculate association rate, dissociation rate, and affinity values.

[6] = biological target: T6, histidine-tagged human SIRPA (Sino …); experiment: BLI (Octet RED96), antibody captured on anti-human IgG Fc sensor, His-tagged SIRPA in solution, 1:1 model
Experimental: as §2, §3

T1 sequence (P78324 31-504): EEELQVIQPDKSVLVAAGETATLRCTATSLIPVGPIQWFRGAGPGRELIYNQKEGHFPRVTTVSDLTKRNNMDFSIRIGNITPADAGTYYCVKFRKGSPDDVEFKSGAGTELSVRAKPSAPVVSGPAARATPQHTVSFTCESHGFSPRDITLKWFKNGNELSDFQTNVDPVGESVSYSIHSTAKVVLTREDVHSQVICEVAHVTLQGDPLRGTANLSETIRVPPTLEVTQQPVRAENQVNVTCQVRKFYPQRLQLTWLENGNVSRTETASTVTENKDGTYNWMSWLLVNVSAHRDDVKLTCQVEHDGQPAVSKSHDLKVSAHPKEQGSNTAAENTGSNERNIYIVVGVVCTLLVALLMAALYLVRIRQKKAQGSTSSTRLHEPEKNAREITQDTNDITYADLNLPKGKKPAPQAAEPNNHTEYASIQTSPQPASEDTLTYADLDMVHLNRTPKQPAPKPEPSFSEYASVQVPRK

B1: mouse anti-SIRPA antibody m3F9 (antibody, mouse IgG1, V domains shown)
VH: EVKLVESGGGLVKPGGSLKLSCAASGFTFSSYAMSWVRQTPEKRLEWVATISDYGGSYTYYPDSVKGRFTISRDNAKYTLYLQMSSLRSEDTALYYCARPPYDDYYGGFAYWGQGTLVTVSA
VL: DIVLTQSPASLAVSLGQRATISCRASKSVSSSGYSYMHWYQQKPGQPPKLLIYLASNLESGVPARFSGSGSGTDFTLNIHPVEEEDAATYYCQHNRELPCTFGGGTKLEIK
notes: hybridoma-derived murine IgG1; also called Parental m3F9 IgG1; 3F9 mIgG1
[1]
  IC50: 11.5 nM
cynoSIRPA XPO15313153.1
  EC50: 1.09 nM
Rat SIRPA
  binding result: no binding
huSIRPA v.2 NP542970.1
  EC50: 0.695 nM
[2]
  EC50: 0.658 nM
[3]
  EC50: 0.72 nM
[4]
  EC50: 2.1 nM
[5]
  Kd: 18 nM
  koff: 0.001 s⁻¹
  kon: 50800 M⁻¹ s⁻¹

B2: anti-SIRPA antibody 9C2 (antibody, V domains shown)
VH: EFQLQQSGAELVKPGASVKISCKASGYSLTGYNMNWVKQSRGKSLEWIGNINPHYGSSTYNQNFKDKATLTVDKSSSAAYMQFNSLTSEDSAVYYCAREGYDGVFDYWGQGTTLTVSS
VL: QIVLSQSPAILSASPGEKVTMTCRASSSVSYMHWYQQKPGSSPKPWIYVTSNLASGVPTRFSGSGSGTSYSLTISRVEAEDAATYYCQQWSSNPRTFGGGTKLEIK
notes: described in PCT/US2017/65366; also called mAb 9C2
[2]
  EC50: 7.44 nM

B3: mAb 14.70.2 (antibody, human IgG4, V domains shown)
VH: EVQLLESGGGLVQPGGSLRLSCAASGFTFSSYAMSWVRQAPGKGLEWVSTISDYGGSYTYYADSVKGRFTISRDNSKNTLYLQMNSLRAEDTAVYYCAKPPYDDYYGGFAYWGQGTLVTVSS
VL: DIQLTQSPSSLSASVGDRVTITCRASKSVSSSGYSYMHWYQQKPGKAPKLLIYLASNLESGVPSRFSGSGSGTDFTLTISSVQPEDFATYYCQHNRELPCTFGQGTKLEIK
notes: also called h3F9 H1/L2; h3F9 IgG4
[1]
  IC50: 2.19 nM
[4]
  EC50: 0.968 nM
[6]
  Kd: 20 nM
  koff: 0.0022 s⁻¹
  kon: 110000 M⁻¹ s⁻¹

B4: mAb 14.70.4 (antibody, human IgG4, V domains shown)
VH: EVQLLESGGGLVQPGGSLRLSCAASGFTFSSYAMSWVRQAPGKGLEWVATISDYGGSYTYYADSVKGRFTISRDNSKNTLYLQMNSLRAEDTAVYYCARPPYDDYYGGFAYWGQGTLVTVSS
VL: DIQMTQSPSSLSASVGDRVTITCRASKSVSSSGYSYMHWYQQKPGKAPKLLIYLASNLESGVPSRFSGSGSGTDFTLTISSLQPEDFATYYCQHNRELPCTFGQGTKLEIK
notes: also called h3F9 H2/L1; h3F9 IgG4
[1]
  IC50: 4.61 nM
[4]
  EC50: 1.61 nM
[6]
  Kd: 11 nM
  koff: 0.00094 s⁻¹
  kon: 86000 M⁻¹ s⁻¹
